This is an account of results in EP4413995A1 (Université de Franche-Comté, dated 2024).

The target in assay [1] is T1, CD123 (recombinant, soluble, analyte of the Octet assay) (human, UniProt P26951 19-305).
T1 chain: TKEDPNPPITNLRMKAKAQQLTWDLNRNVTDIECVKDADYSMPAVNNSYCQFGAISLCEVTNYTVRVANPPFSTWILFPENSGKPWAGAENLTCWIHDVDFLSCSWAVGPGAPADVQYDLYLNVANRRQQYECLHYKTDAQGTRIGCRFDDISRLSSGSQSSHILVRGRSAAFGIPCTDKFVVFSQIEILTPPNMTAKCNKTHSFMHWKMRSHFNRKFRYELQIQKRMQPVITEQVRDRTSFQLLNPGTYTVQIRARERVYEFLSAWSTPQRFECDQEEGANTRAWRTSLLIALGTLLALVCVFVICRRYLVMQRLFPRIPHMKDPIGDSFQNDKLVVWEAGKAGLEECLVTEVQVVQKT
The assay can be described thus: BLI (Octet, ForteBio), antibody immobilized on streptavidin biosensors, CD123 in solution (row of 25 nM). (In general: BLI is a label-free optical method that tracks binding on a fibre tip over time.)

Assay [2] concerns the target T1, CD123 (recombinant, soluble, analyte of …). Briefly: BLI (Octet, ForteBio), antibody immobilized on streptavidin biosensors, CD123 in solution (row of 50 nM).
For assay [3] the target is unchanged. Briefly: BLI (Octet, ForteBio), antibody immobilized on streptavidin biosensors, CD123 in solution (row of 12.5 nM).
For assay [4] the target is unchanged. Briefly: BLI (Octet, ForteBio), antibody immobilized on streptavidin biosensors, CD123 in solution (row of 6.25 nM).

A word on the Kd: it is the equilibrium constant for the complex coming apart. For orientation: koff means the rate constant with which the complex falls apart. As usually defined, the kon is the rate constant with which the complex forms.

B1: 18B4D5 (antibody, V domains shown)
VH: EVKLQESGPGLVKPSQSLSLTCTVTGYSITSDYTWNWIRQFPGNKLEWMGYISFSGSTSYNPSLKSRLSITRDTSKNQFFLQLNSVTTEDTATYYCARGLDYWGQGTTLTVSS
VL: DIVMTQSPAIMSASLGERVTMTCTASSSISSSYLYWYQQKPGSSPKLWIYSTSNLASGVPARFSGSGSGTSYSLTISSMEAEDAATYYCHQLHRSPWTFGGGTKLEIKR
As for B1, the Kd in assay [1], in assay [2], in assay [3] and in assay [4] was less than 1 pM in each case. For the same molecule, the koff in assay [1], in assay [2], in assay [3] and in assay [4] was less than 1e-07 s⁻¹ in each case. Moreover, the kon in assay [1], in assay [2], in assay [3] and in assay [4] was 122000 M⁻¹ s⁻¹ each time.
